Drawing on US20040018561, this text covers Km and kcat/Km for three proteins.

The target of data set [1] is N-2-[(7-methoxy-2-oxo-2H-chromen-4-yl)acetyl]-D-arginyl-L-prolyl-L-leucylglycyl-6-(benzyloxy)-L-norleucyl-3-[(2,4-dinitrophenyl)amino]-L-alanyl-L-alanyl-D-arginyl-D-alpha-glutamyl-D-argininamide.
The target in data set [2] is N-2-[(7-methoxy-2-oxo-2H-chromen-4-yl)acetyl]-D-arginyl-L-prolyl-L-leucylglycyl-6-phenoxy-L-norleucyl-3-[(2,4-dinitrophenyl)amino]-L-alanyl-L-alanyl-D-arginyl-D-alpha-glutamyl-D-argininamide.
Data set [3] has as its target N-2-[(7-methoxy-2-oxo-2H-chromen-4-yl)acetyl]-D-arginyl-L-prolyl-L-leucylglycyl-L-leucyl-3-[(2,4-dinitrophenyl)amino]-L-alanyl-L-alanyl-D-arginyl-D-alpha-glutamyl-D-argininamide.
Data set [4] has as its target N-2-[(7-methoxy-2-oxo-2H-chromen-4-yl)acetyl]-L-arginyl-L-prolyl-L-leucylglycyl-6-(benzyloxy)-L-norleucyl-3-[(2,4-dinitrophenyl)amino]-L-alanyl-L-alanyl-L-arginyl-L-alpha-glutamyl-L-argininamide.
Data set [5] addresses N-2-[(7-methoxy-2-oxo-2H-chromen-4-yl)acetyl]-L-arginyl-L-prolyl-L-leucylglycyl-L-leucyl-3-[(2,4-dinitrophenyl)amino]-L-alanyl-L-alanyl-D-arginyl-D-alpha-glutamyl-D-argininamide.
The target in data set [6] is N-2-[(7-methoxy-2-oxo-2H-chromen-4-yl)acetyl]-L-arginyl-L-prolyl-L-leucylglycyl-L-leucyl-3-[(2,4-dinitrophenyl)amino]-L-alanyl-L-alanyl-L-arginyl-L-alpha-glutamyl-L-argininamide.

B1: MMP-7 (protein)
chain: YSLFPNSPKWTSKVVTYRIVSYTRDLPHITVDRLVSKALNMWGKEIPLHFRKVVWGTADIMIGFARGAHGDSYPFDGPGNTLAHAFAPGTGLGGDAHFDEDERWTDGSSLGINFLYAATHELGHSLGMGHSSDPNAVMYPTYGNGDPQNFKLSQDDIKGIQKLYGKRSNSRKK
As to B1, the Michaelis constant (Km) in data set [1] came to 94.7 µM; in data set [3], 81.2 µM; in data set [5], 25 µM; in data set [6] it was 26.4 µM. Further, the specificity constant (kcat/Km) was determined as 2980 M⁻¹ s⁻¹ in data set [1]; 0 M⁻¹ s⁻¹ in data set [2]; 22000 M⁻¹ s⁻¹ in data set [3]; 0 M⁻¹ s⁻¹ in data set [4]; 120000 M⁻¹ s⁻¹ in data set [5]; 142000 M⁻¹ s⁻¹ in data set [6].

B2: MMP-1 (protein)
chain: FVLTEGNPRWEQTHLTYRIENYTPDLPRADVDHAIEKAFQLWSNVTPLTFTKVSEGQADIMISFVRGDHRDNSPFDGPGGNLAHAFQPGPGIGGDAHFDEDERWTNNFREYNLHRVAAHELGHSLGLSHSTDIGALMYPSYTFSGDVQLAQDDIDGIQAIYGRSQNPVQPIGPQTPKACDSKLTFDAITTIRGEVMFFKDRFYMRTNPFYPEVELNFISVFWPQLPNGLEAAYEFADRDEVRFFKGNKYWAVQGQNVLHGYPKDIYSSFGFPRTVKHIDAALSEENTGKTYFFVANKYWRYDEYKRSMDPGYPKMIAHDFPGIGHKVDAVFMKDGFFYFFHGTRQYKFDPKTKRILTLQKANSWFNCRKN
Regarding B2, the Km is 35.1 µM in data set [1], 49 µM in data set [3], 17.3 µM in data set [5] and 16 µM in data set [6]. Also, the catalytic efficiency (kcat/Km) in data set [1] was 3600 M⁻¹ s⁻¹; in data set [2] it was 0 M⁻¹ s⁻¹; in data set [3], 57000 M⁻¹ s⁻¹; in data set [4], 0 M⁻¹ s⁻¹; in data set [5], 176000 M⁻¹ s⁻¹; in data set [6] it was 255000 M⁻¹ s⁻¹.

B3: MMP-2 (protein)
chain: YNFFPRKPKWDKNQITYRIIGYTPDLDPETVDDAFARAFQVWSDVTPLRFSRIHDGEADIMINFGRWEHGDGYPFDGKDGLLAHAFAPGTGVGGDSHFDDDELWTLGEGQVVRVKYGNADGEYCKFPFLFNGKEYNSCTDTGRSDGFLWCSTTYNFEKDGKYGFCPHEALFTMGGNAEGQPCKFPFRFQGTSYDSCTTEGRTDGYRWCGTTEDYDRDKKYGFCPETAMSTVGGNSEGAPCVFPFTFLGNKYESCTSAGRSDGKMWCATTANYDDDRKWGFCPDQGYSLFLVAAHEFGHAMGLEHSQDPGALMAPIYTYTKNFRLSQDDIKGIQELYGASPDIDLGTGPTPTLGPVTPEICKQDIVFDGIAQIRGEIFFFKDRFIWRTVTPRDKPMGPLLVATFWPELPEKIDAVYEAPQEEKAVFFAGNEYWIYSASTLERGYPKPLTSLGLPPDVQRVDAAFNWSKNKKTYIFAGDKFWRYNEVKKKMDPGFPKLIADAWNAIPDNLDAVVDLQGGGHSYFFKGAYYLKLENQSLKSVKFGSIKSDWLGC
As for B3, the Km in data set [1] was 3.7 µM; in data set [2], 3.6 µM; in data set [3], 9.9 µM; in data set [4], 8.3 µM; in data set [5], 16.3 µM; in data set [6], 16.5 µM. The kcat/Km is 600000 M⁻¹ s⁻¹ in data set [1]; 1.96e+06 M⁻¹ s⁻¹ in data set [2]; 178000 M⁻¹ s⁻¹ in data set [3]; 1.34e+06 M⁻¹ s⁻¹ in data set [4]; 681000 M⁻¹ s⁻¹ in data set [5]; 565000 M⁻¹ s⁻¹ in data set [6].
